According to publication PMC13095208, “Structural mechanisms of pump assembly and drug transport in the AcrAB–TolC efflux system” (eLife, 2026):

Target: the molecule itself
Assay: cryo-EM structure

B1: AcrA, periplasmic membrane fusion protein of Escherichia coli (natural protein)
chain: CDDKQAQQGGQQMPAVGVVTVKTEPLQITTELPGRTSAYRIAEVRPQVSGIILKRNFKEGSDIEAGVSLYQIDPATYQATYDSAKGDLAKAQAAANIAQLTVNRYQKLLGTQYISKQEYDQALADAQQANAAVTAAKAAVETARINLAYTKVTSPISGRIGKSNVTEGALVQNGQATALATVQQLDPIYVDVTQSSNDFLRLKQELANGTLKQENGKAKVSLITSDGIKFPQDGTLEFSDVTVDQTTGSITLRAIFPNPDHTLLPGMFVRARLEEGLNPNAILVPQQGVTRTPRGDATVLVVGADDKVETRPIVASQAIGDKWLVTEGLKAGDRVVISGLQKVRPGVQVKAQEVTADNNQQAASGAQPEQSKS
With B1 the “stoichiometry N” value was 6 protomers.
